Measurements: US20120058118A1 (Boehringer Ingelheim, published 2012)
One block for each binder: values may come before it. Ends that are not written are not given here. * marks the point of attachment. Biotin = O=C1N[C@H]2[C@H](CS[C@H]2CCCCC(=O)*)N1

Tests used:
[1] = target: T1, human A-beta(1-40) peptide, monomeric (BAM) (human, biotin at the C-terminus in capture ELISA, SPR and TR-FRET; not biotinylated where coated directly (Example 7)); test: ABII050 TR-FRET competition assay
T1 construct: synthetic peptide (Anaspec), TFA/HFIP treated to give monomer; also called monomeric A-beta

[2] = target: T2, aggregated A-beta(1-40) peptide (BAA) (human); test: BAA ELISA
T2 construct: also called A-beta peptide aggregates

[3] = target: T1, human A-beta(1-40) peptide, monomeric …; test: BAM ELISA
[4] = target: T2, aggregated A-beta(1-40) peptide (BAA); test: BAA ELISA; remark: listed apart in the source
[5] = target: T1, human A-beta(1-40) peptide, monomeric …; test: BAM ELISA; remark: listed apart in the source
[6] = target: T3, A-beta(12-28) peptide (human); test: SPR on captured A-beta(12-28)
T3 construct: Bachem peptide captured on streptavidin chip; also called monomeric A-beta(12-28); central region
T3 peptide: Biotin-VHHQKLVFFAEDVGSNK
Experimental: After capturing, surfaces are blocked by injecting an excess (200 μg/ml) of d-biotin for 180 s at 5 μl/min. A reference surface is washed and blocked with d-biotin. HBS-EP+buffer is used as the running buffer and experiments are performed at 25° C. For off-rate screening, periplasmic extracts of VHHs are injected at a 10-fold dilution for 2 min at 45 μl/min and are allowed to dissociate for 10 min. […] Between different VHH samples, the surfaces are regenerated with regeneration buffer (50 mM NaOH) for 25 s at 45 μl/min followed by 10 s 6M GuHCl at 45 μl/min if regeneration is incomplete. […] Data are double referenced by subtraction of the curves on the reference channel and of a blank running buffer injection. Sensorgrams are evaluated by fitting a 1:1 dissociation model using the Biacore T100 Evaluation software v1.1.1.

[7] = target: T1, human A-beta(1-40) peptide, monomeric …; test: TR-FRET competition, labelled ABII60A10; extrapolated curve
[8] = target: T1, human A-beta(1-40) peptide, monomeric …; test: TR-FRET competition, labelled ABII42D4
[9] = target: T1, human A-beta(1-40) peptide, monomeric …; test: TR-FRET competition, mean IC50
[10] = target: T1, human A-beta(1-40) peptide, monomeric …; test: TR-FRET competition; labelled competitor not given

B6: ABII61F6 (VHH)
VHH: EVQLVESGGGLVQTGGSLRLSCAASGSTVNINAMGWYRQAPGKQRELVAIINKRGVTNYADSTEGRFTISRDNSKRTLYLQMNSLKPEDTAVYYCNAVVGRYGRTYGYWGQGTQVTVSS
EC50 [4]: 14.5 nM
EC50 [5]: 469 nM
binding result [6]: binds
IC50 [7]: 967 nM

B7: ABII111B5_E109W (VHH)
VHH: EVQLVESGGGLVLAGGSLRLSCVHSGPTFRTDTMGWFRQAPGKEREFVAAVTWNSGRINYADSVKGRFTVSRDNTRNAAYLQMSGLKDEDTAVYYCTAHRFVVGGNMVWDWRYWGQGTQVTVSS
notes: targeted mutant
IC50 [8]: 4.7 nM

B8: ABII111B5_F101W (VHH)
VHH: EVQLVESGGGLVLAGGSLRLSCVHSGPTFRTDTMGWFRQAPGKEREFVAAVTWNSGRINYADSVKGRFTVSRDNTRNAAYLQMSGLKDEDTAVYYCTAHRWVVGGNMVEDWRYWGQGTQVTVSS
notes: targeted mutant
IC50 [8]: 7.3 nM

B9: ABII111B5_N106V (VHH)
VHH: EVQLVESGGGLVLAGGSLRLSCVHSGPTFRTDTMGWFRQAPGKEREFVAAVTWNSGRINYADSVKGRFTVSRDNTRNAAYLQMSGLKDEDTAVYYCTAHRFVVGGVMVEDWRYWGQGTQVTVSS
notes: targeted mutant
IC50 [8]: 10 nM

B19: ABII111B5_N106T (VHH)
VHH: EVQLVESGGGLVLAGGSLRLSCVHSGPTFRTDTMGWFRQAPGKEREFVAAVTWNSGRINYADSVKGRFTVSRDNTRNAAYLQMSGLKDEDTAVYYCTAHRFVVGGTMVEDWRYWGQGTQVTVSS
notes: targeted mutant
IC50 [8]: 9.2 nM

B20: ABII029 (VHH)
VHH: EVQLLESGGGLVQPGGSLRLSCVHSGPTFRTDTMGWFRQAPGKGREFVAAVTWNSGRINYADSVKGRFTISRDNSKNTLYLQMNSLRPEDTAVYYCAAHRFVVGGNRVEDWRYWGQGTLVTVSS
notes: humanized variant of ABII002
IC50 [9]: 89 nM
IC50 [10]: 89 nM

B21: ABII031 (VHH)
VHH: EVQLLESGGGLVQPGGSLRLSCVHSGPTFRTDTMGWFRQAPGKGREFVAAVTWNSGRINYADSVKGRFTISRDNSKNAVYLQMSSLRPEDTAVYYCAAHRFVVGGNRVEDWRYWGQGTLVTVSS
notes: humanized variant of ABII002
IC50 [9]: 13 nM
IC50 [10]: 13 nM

B22: ABII034 (VHH)
VHH: EVQLLESGGGLVQPGGSLRLSCVHSGPTFRTDTMGWFRQAPGKGREFVAAVTWNSGRINYADSVKGRFTISRDNSKNTVYLQMSSLRPEDTAVYYCAAHRFVVGGNRVEDWRYWGQGTLVTVSS
notes: humanized variant of ABII002
IC50 [9]: 10 nM
IC50 [10]: 10 nM

B23: ABII033 (VHH)
VHH: EVQLLESGGGLVQPGGSLRLSCVHSGPTFRTDTMGWFRQAPGKGREFVAAVTWNSGRINYADSVKGRFTISRDNSKNAAYLQMSSLRPEDTAVYYCAAHRFVVGGNRVEDWRYWGQGTLVTVSS
notes: humanized variant of ABII002
IC50 [9]: 4 nM
IC50 [10]: 4 nM

B24: ABII032 (VHH)
VHH: EVQLLESGGGLVQPGGSLRLSCVHSGPTFRTDTMGWFRQAPGKGREFVAAVTWNSGRINYADSVKGRFTISRDNSKNAAYLQMNSLRPEDTAVYYCAAHRFVVGGNRVEDWRYWGQGTLVTVSS
notes: humanized variant of ABII002
IC50 [9]: 4.9 nM
IC50 [10]: 4.9 nM

B25: ABII036 (VHH)
VHH: EVQLLESGGGLVQPGGSLRLSCVHSGPTFRTDTMGWFRQAPGKGREFVAAVTWNSGRINYADSVKGRFTISRDNSKNTAYLQMSSLRPEDTAVYYCAAHRFVVGGNRVEDWRYWGQGTLVTVSS
notes: humanized variant of ABII002
IC50 [9]: 3.5 nM
IC50 [10]: 3.5 nM

B26: ABII030 (VHH)
VHH: EVQLLESGGGLVQPGGSLRLSCVHSGPTFRTDTMGWFRQAPGKGREFVAAVTWNSGRINYADSVKGRFTISRDNSKNAVYLQMNSLRPEDTAVYYCAAHRFVVGGNRVEDWRYWGQGTLVTVSS
notes: humanized variant of ABII002
IC50 [9]: 12 nM
IC50 [10]: 12 nM

Second part, the binder after the results:

IC50 [1]: 0.31 nM
B1: ABII315-PEG40 (designed binder)
chain: EVQLLESGGGLVQPGGSLRLSCAASGRTFNNYNMGWFRQAPGKGREFVAAVSRSGVSTYYADSVKGRFTISRDNSKNTVYLQMNSLRPEDTAVYYCAAAYRGTAINVRRSYSSWGQGTLVTVSSGGGGCGGGSEVQLLESGGGLVQPGGSLRLSCVHSGPTFRTDTMGWFRQAPGKGREFVAAVTWNSGRINYADSVKGRFTISRDNSKNTAYLQMNSLRPEDTAVYYCAAHRFVVGGNRVEDWRYWGQGTLVTVSS
modifications: PEG40 on the Cys at position 5 of the 9GS linker
notes: 059-9GSC-035; purified as His6-tagged construct before PEGylation

binding result [2]: no binding
binding result [3]: no binding
B2: reference VHH 11G (VHH)
VHH: QVQLQESGGGLVQPGGSLRLSCAASGSIFSINTMAWYRQAPGKERDLVAAIISSGSTNYADSVKGRFTISRDNTKNTVYLQMNSLKLEDTAVYYCNAAIRRSVIDAWGAYWGQGTQVTVSS
notes: from WO2007/35092

binding result [2]: no binding
binding result [3]: no binding
B3: reference VHH 3A (VHH)
VHH: AVQLVESGGGLVRDGDSLRLSCAASGRTFSSYVMGWFRQAPGKEREFVAAIGWSGGSTAYADSVKGRFTISRDNARNTVYLQMNSLKPEDTAVYYCASAPTRWVPRDSRFYDRWGQGTRVTVSS
notes: from WO2007/35092

binding result [2]: no binding
binding result [3]: no binding
B4: reference VHH 31-1 (VHH)
VHH: EVQLQASGGGSVQPGGSLRLSCAASGFIFGWSTMSWVRQAPGKGLEWVSTISGGGSATTYTDSVKGRFTISRDRAKNTLYLQMNSLKPEDTAIYYCNADVSTGFRYQRKDYWGRGTQVTVSS
notes: from WO2004/44204; also called V31-1

binding result [2]: no binding
binding result [3]: no binding
B5: reference VHH 1B (VHH)
VHH: QVQLQESGGGLVQPGGSLRLSCAASEFTLDYYSIAWFRQAPGKEREGVSCISSYDGSTSYADSVKGRFTISRDNAKNTVYLQMNSLKPEDTAIYYCAAGIRDWATLREYEYDDWGQGTQVTVSS
notes: from WO2007/35092

IC50 [8]: 3.4 nM
B10: ABIIPMP111F2 (VHH)
VHH: EVQLVESGGGLVLAGGSLRLSCVHSGPTFSTDTMGWFRQAPGKEREFVAAVTWNSGRTNYADSVKGRFTVSRDNTRNAAYLQMSGLKDEDTAVYYCTANRHSVGRLSVGDWRYWGQGSQVTVSS
notes: c-myc and (His)6 tags

IC50 [8]: 5.3 nM
B11: ABII111B5_R30K (VHH)
VHH: EVQLVESGGGLVLAGGSLRLSCVHSGPTFKTDTMGWFRQAPGKEREFVAAVTWNSGRINYADSVKGRFTVSRDNTRNAAYLQMSGLKDEDTAVYYCTAHRFVVGGNMVEDWRYWGQGTQVTVSS
notes: targeted mutant

IC50 [8]: 6.1 nM
B12: ABIIPMP111E4 (VHH)
VHH: EVQLVESGGGLVLAGGSLRLSCVHSGPTFSTDTMGWFRQAPGKEREFVAAVTWNSGRTNYADSVKGRFTVSRDNTRNAAYLQMSGLKDEDTAVYYCTAARLTVGSLSVGDWRYWGQGTQVTVSS
notes: c-myc and (His)6 tags

IC50 [8]: 5 nM
B13: ABII111B5_R30W (VHH)
VHH: EVQLVESGGGLVLAGGSLRLSCVHSGPTFWTDTMGWFRQAPGKEREFVAAVTWNSGRINYADSVKGRFTVSRDNTRNAAYLQMSGLKDEDTAVYYCTAHRFVVGGNMVEDWRYWGQGTQVTVSS
notes: targeted mutant

IC50 [8]: 6 nM
B14: ABIIPMP111C6 (VHH)
VHH: EVQLVESGGGLVLAGGSLRLSCVHSGPTFWTDTMGWFRQAPGKEREFVAAVTWNSGRLNYADSVKGRFTVSRDNTRNAAYLQMSGLKDEDTAVYYCTAHRQVVGGVQVLDWRYWGQGTQVTVSS
notes: c-myc and (His)6 tags

IC50 [8]: 5.1 nM
B15: ABIIPMP111B4 (VHH)
VHH: EVQLVESGGGLVLAGGSLRLSCVHSGPTFWTDTMGWFRQAPGKEREFVAAVTWSSGRANYADSVKGRFTVSRDNTRNAAYLQMSGLKDEDTAVYYCTAHRGVVGGWVVVDWRYWGQGTQVTVSS
notes: c-myc and (His)6 tags

IC50 [8]: 8.8 nM
B16: ABII111E5cl1 (VHH)
VHH: EVQLVESGGGLVLAGGSLRLSCVHSGPTFLTDTMGWFRQAPGKEREFVAAVTWNSGRINYADSVKGRFTVSRDNTRNAAYLQMSGLKDEDTAVYYCTAHRFVVGGREVQDWRYWGQGTQVTVSS
notes: c-myc and (His)6 tags

IC50 [8]: 8.6 nM
B17: ABIIPMP111C4 (VHH)
VHH: EVQLVESGGGLVLAGGSLRLSCVHSGPTFLTDTMGWFRQAPGKEREFVAAVTWNSGRANYADSVKGRFTVSRDNTRNAAYLQMSGLKDEDTAVYYCTAHRSVVGGVGVWDWRYWSQGTQVTVSS
notes: c-myc and (His)6 tags

IC50 [8]: 19 nM
B18: ABIIPMP111B9 (VHH)
VHH: EVQLVESGGGLVLAGGSLRLSCVHSGPTFGTDTMGWFRQAPGKEREFVAAVTWNSGRANYADSVKGRFTVSRDNTRNAAYLQMSGLKDEDTAVYYCTAHRFVVGGGCVKDWRYWGQGTQVTVSS
notes: c-myc and (His)6 tags
